Here are results for one substance from publication PMC4063868.

In this assay the target is histones (chicken (endogenous in LMH)). As to the kind of experiment: high-salt co-extraction with histones from chromatin; LMH cells 48 h post-transfection; chromatin pelleted and incubated in 50 mM Tris-HCl pH 8.0, 2.5 M NaCl, 0,05% NP40 for 30 min at 4°C; supernatant (histones fraction) on 10% SDS-PAGE, colloidal coomassie blue and immunoblot with anti-VP22 L13a.

Turning to “VP22 of Marek's disease virus tagged with eGFP at its C-terminus (natural protein)”, the fold less VP22 in the histone extract than from peGFP-UL49 cells was found to be 4.5 fold.
